Source: the supplement of paper PMC7877785
± gives the uncertainty stated by the source.

Assay: self-splicing fitness, log relative to wild type (ln ratio); higher = more splicing; Tetrahymena group I intron in knt gene, E. coli kanamycin selection, DiMSum; sequences stand for … in CUCUCU…GGAGGGAAAAGUUAUCAGGCAUGCACCUGGUAGCUAGUCUUUAAACCAAUAGAUUGCAUCGGUUUAAAAGGCAAGACCGUCAAAUUGCGGGAAAGGGGUCAACAGCCGUUCAGUACCAAGUCUCAGGGGAAACUUUGAGAUGGCCUUGCAAAGGGUAUGGUAAUAAGCUGACGGACAUGGUCCUAACCACGCAGCCAAGUCCUAAGUCAACAGAUCUUCUGUUGAUAUGGAUGCAGUUCACAGACUAAAUGUCGGUCGGGGAAGAUGUAUUCUUCUCAUAAGAUAUAGUCGGACCUCUCCUUAAUGGGAGCUAGCGGAUGAAGUGAUGCAACACUGGAGCCGCUGGGAACUAAUUUGUAUGCGAAAGUAUAUUGAUUAGUUUUGGAGUACUCGUGGUCG
Procedure, shortened: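 Library with all eight P1ex-region intron nucleotides randomised, intron inside the knt kanamycin-resistance gene on pET-22b(+), in E. coli BL21(DE3). Cells grew overnight at 37°C or 30°C on LB agar with or without 25 μg/mL kanamycin (plus 100 μg/mL carbenicillin, 50 μM IPTG, 0.2% rhamnose), in six replicate transformations. Pooled colonies were amplicon-sequenced on Illumina HiSeq 2500. DiMSum fitness is the error-weighted combination of wild-type-normalised replicate fold changes, kanamycin versus none.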

Row | Sequence | self-splicing fitness (ln) (30 °C) | self-splicing fitness (ln) (37 °C)
1 | UCAUAGCAAUAUUACGUACU | -4.14 ± 0.19 | -2.96 ± 0.19
2 | CUACAGCAAUAUUACGUAGG | -1.39 ± 0.059 | -1.14 ± 0.093
3 | AUAGAGCAAUAUUACGCAUA | -0.926 ± 0.16 | -0.513 ± 0.26
4 | CUACAGCAAUAUUACGACGA | -2.65 ± 0.15 | -2.02 ± 0.18
5 | AUGCAGCAAUAUUACGCAAU | -2.65 ± 0.12 | -1.98 ± 0.13
6 | AAUGAGCAAUAUUACGUUGU | -3.73 ± 0.14 | -2.89 ± 0.16
7 | CUGAAGCAAUAUUACGCCGC | -3.17 ± 0.35 | 
8 | UCACAGCAAUAUUACGCGUA | -1.09 ± 0.086 | -0.297 ± 0.082
9 | UACUAGCAAUAUUACGUUAC | -3.86 ± 0.27 | -2.44 ± 0.3
10 | UGCCAGCAAUAUUACGUAGA | -1.45 ± 0.056 | -0.504 ± 0.065
11 | UUUAAGCAAUAUUACGGUGA | -1.11 ± 0.11 | -0.554 ± 0.12
12 | AGUUAGCAAUAUUACGUUUG | -3.13 ± 0.24 | -1.8 ± 0.29
13 | CGAGAGCAAUAUUACGUGAU | -4.24 ± 0.24 | -2.58 ± 0.2
14 | GUUUAGCAAUAUUACGCCUA | -0.696 ± 0.28 | -0.827 ± 0.4
15 | GACGAGCAAUAUUACGUACU | -1.64 ± 0.18 | -0.775 ± 0.14
16 | GAACAGCAAUAUUACGGUCU | -1.16 ± 0.086 | -0.205 ± 0.095
17 | GACUAGCAAUAUUACGCGAU | -2.8 ± 0.21 | -2.42 ± 0.3
18 | CCAGAGCAAUAUUACGUUAA | -4.07 ± 0.37 | -2.91 ± 0.29
19 | GGCCAGCAAUAUUACGCGCG | -0.959 ± 0.089 | -0.284 ± 0.12
20 | AUACAGCAAUAUUACGACCA | -0.419 ± 0.15 | -0.298 ± 0.17
21 | CCACAGCAAUAUUACGUCAA | -2.92 ± 0.15 | -2.22 ± 0.21
22 | AUCUAGCAAUAUUACGAAGG | -3.42 ± 0.3 | -2.01 ± 0.32
23 | ACGUAGCAAUAUUACGGCCA | 0.73 ± 0.19 | 0.143 ± 0.18
24 | UUCUAGCAAUAUUACGAGAU | -3.95 ± 0.33 | -2.67 ± 0.34
25 | AGCCAGCAAUAUUACGCGAC | -0.935 ± 0.13 | -1.78 ± 0.2

Row | Sequence | self-splicing fitness (ln) (30 °C) | self-splicing fitness (ln) (37 °C)
26 | CCUUAGCAAUAUUACGCUAA | -3.35 ± 0.4 | -1.97 ± 0.2
27 | UUAAAGCAAUAUUACGCCCA | 0.818 ± 0.11 | 0.402 ± 0.14
28 | CCUCAGCAAUAUUACGACAG | -1.06 ± 0.066 | -0.262 ± 0.079
29 | GCUCAGCAAUAUUACGCAGC | -2.98 ± 0.35 | -2.67 ± 0.44
30 | CCUUAGCAAUAUUACGGGGA | -3.75 ± 0.29 | -2.63 ± 0.23
31 | UUGAAGCAAUAUUACGGUUU | -2.88 ± 0.11 | -2.69 ± 0.19
32 | AAGGAGCAAUAUUACGUAUG | -3.31 ± 0.34 | -3.58 ± 0.33
33 | GAGUAGCAAUAUUACGUCGC | -1.31 ± 0.22 | -1.42 ± 0.26
34 | UUCUAGCAAUAUUACGUUUG | -3.49 ± 0.35 | -2.66 ± 0.4
35 | CCUGAGCAAUAUUACGUCAC |  | -1.54 ± 0.31
36 | AAAAAGCAAUAUUACGUUCG | -0.479 ± 0.078 | -1.04 ± 0.1
37 | AAAUAGCAAUAUUACGGGCC | -2.49 ± 0.32 | -2.55 ± 0.41
38 | ACUUAGCAAUAUUACGUGUU | -3.22 ± 0.16 | -1.5 ± 0.12
39 | GUGAAGCAAUAUUACGUACC | -1.07 ± 0.2 | 
40 | CAGAAGCAAUAUUACGUAUC |  | -3.17 ± 0.24
41 | CGGGAGCAAUAUUACGGAGC | -2.32 ± 0.37 | -0.632 ± 0.25
42 | CGACAGCAAUAUUACGAGAU | -3.16 ± 0.23 | -2.01 ± 0.21
43 | ACAGAGCAAUAUUACGCGCG | -2.69 ± 0.098 | -1.47 ± 0.1
44 | GUCAAGCAAUAUUACGGCGC | -0.751 ± 0.11 | -0.437 ± 0.14
45 | CCUCAGCAAUAUUACGUCCU | -4.39 ± 0.31 | -2.68 ± 0.3
46 | GCUCAGCAAUAUUACGUCAC | -3.37 ± 0.22 | -2.06 ± 0.22
47 | CGCGAGCAAUAUUACGCGUA | -2.59 ± 0.37 | -2.52 ± 0.28
48 | AUGGAGCAAUAUUACGGCAU | -0.641 ± 0.16 | -0.53 ± 0.16
49 | CCAGAGCAAUAUUACGGCAC | -3.21 ± 0.32 | -2.73 ± 0.27
